Laboratory results taken from publication PMC5177531 (2016).
Non-standard residues stand in square brackets, D forms with d. No end group written: not given here. *: point of attachment. NMeF = CN[C@@H](Cc1ccccc1)C(=O)O; NHCH2CH2OH = OCCN*

Biological target: T1, mDOR-1 (Mus musculus, UniProt P32300)
T1 chain: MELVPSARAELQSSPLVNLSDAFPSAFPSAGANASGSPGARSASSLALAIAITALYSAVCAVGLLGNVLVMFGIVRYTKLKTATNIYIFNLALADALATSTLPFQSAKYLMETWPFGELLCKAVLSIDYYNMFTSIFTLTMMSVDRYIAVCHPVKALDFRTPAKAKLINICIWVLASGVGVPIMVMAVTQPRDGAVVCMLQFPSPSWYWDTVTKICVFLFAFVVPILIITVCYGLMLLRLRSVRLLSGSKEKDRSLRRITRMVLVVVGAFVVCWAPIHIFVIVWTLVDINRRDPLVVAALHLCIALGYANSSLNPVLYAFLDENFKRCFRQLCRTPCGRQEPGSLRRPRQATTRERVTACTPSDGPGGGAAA
Assay: 125I-IBNtxA competition, CHO membranes

Ki: > 500 nM
Binder: Y[dA]G[NMeF][NHCH2CH2OH] [DAMGO]
